Measurements taken from US20190183976A1 (GPCR THERAPEUTICS, published 2019).

How the values were obtained:
[1] = molecular target: T1, CXCR4-VN (human, UniProt P61073 1-352); experiment: BiFC, U-2 OS cells; score=(positive cells/total cells)x100
T1 construct: whole, on cells; Adenovirus-expressed in U-2 OS cells; also called CXCR4 fused with N-terminal fragment of Venus; not shown: VNm10, N-terminal fragment of Venus (VN154 variant with L46F and L64F)
Protocol: Images of about 200 cells from each well were analyzed with Multi-target analysis software in IN Cell Developer ToolBox (GE Healthcare, Waukesha, Wis.). Cell boundary was marked based on Hoechst signal, and fluorescence intensity per cell was measured. Cells with fluorescence intensities higher than background level were considered as BiFC positive cells. […] Positive cells were determined, and positive cell count ratio (“BiFC score”) was calculated as (positive cells/total cells)×100 (see Table 4 below).

[2] = molecular target: T2, CHRM1 (human, UniProt P11229 1-460); experiment: internalization inhibition assay, CXCR4-GFP U-2 OS cells transduced with GPCRx; CXCL12 and/or GPCRx antagonist
T2 construct: whole, on cells; Untagged: adenovirus-expressed in U-2 OS or MDA-MB-231 cells, or endogenous in patient derived cells; also called Cholinergic Receptor Muscarinic 1
T2 sequence (looked up): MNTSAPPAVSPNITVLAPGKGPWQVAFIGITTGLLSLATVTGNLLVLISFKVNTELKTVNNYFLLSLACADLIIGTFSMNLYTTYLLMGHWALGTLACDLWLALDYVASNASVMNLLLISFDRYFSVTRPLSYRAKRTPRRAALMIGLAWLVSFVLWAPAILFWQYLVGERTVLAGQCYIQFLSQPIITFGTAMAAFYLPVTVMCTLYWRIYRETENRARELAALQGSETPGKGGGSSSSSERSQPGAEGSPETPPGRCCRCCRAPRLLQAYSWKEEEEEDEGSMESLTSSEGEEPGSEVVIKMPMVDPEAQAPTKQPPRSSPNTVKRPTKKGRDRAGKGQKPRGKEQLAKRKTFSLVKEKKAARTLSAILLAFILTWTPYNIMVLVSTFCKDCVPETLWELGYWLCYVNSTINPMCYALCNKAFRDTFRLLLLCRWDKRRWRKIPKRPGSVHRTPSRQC
Protocol: (§1) Internalization of CXCR4-GFP was observed as GFP granules using IN Cell Analyzer 2500. Loss of GFP expression on the cell surface or appearance of GFP granules inside the cells were considered as CXCR4-GFP co-internalization.
(§2) CXCR4-GFP expressed U-2 OS cells were seeded at a density of 5000 cells per well in a black 96-well clear-bottom plate in 100 μl of McCoy's 5A medium supplemented with 10% FBS. On the following day, the cells were transduced with adenoviruses encoding GPCRx (30 MOI).

[3] = molecular target: T3, HRH1 (human, UniProt P35367 1-487); experiment: as above
T3 construct: whole, on cells; Untagged: adenovirus-expressed in U-2 OS or MDA-MB-231 cells, or endogenous in MDA-MB-231 cells; also called Histamine Receptor H1
T3 sequence (P35367 whole entry): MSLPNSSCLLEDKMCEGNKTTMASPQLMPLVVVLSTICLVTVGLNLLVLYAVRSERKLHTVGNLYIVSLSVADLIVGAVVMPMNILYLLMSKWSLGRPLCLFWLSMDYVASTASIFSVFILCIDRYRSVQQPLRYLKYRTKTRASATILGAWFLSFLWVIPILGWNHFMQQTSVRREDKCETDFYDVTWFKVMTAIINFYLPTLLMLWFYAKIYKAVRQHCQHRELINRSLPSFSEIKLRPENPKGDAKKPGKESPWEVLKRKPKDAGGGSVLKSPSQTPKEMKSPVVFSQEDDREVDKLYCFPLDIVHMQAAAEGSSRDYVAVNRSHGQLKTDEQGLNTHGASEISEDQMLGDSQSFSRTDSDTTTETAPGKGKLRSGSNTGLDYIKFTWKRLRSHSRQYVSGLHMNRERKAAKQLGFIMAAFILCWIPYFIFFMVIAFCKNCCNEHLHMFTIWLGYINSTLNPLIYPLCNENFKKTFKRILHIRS
Protocol: as §1, §2

[4] = molecular target: T4, ADRB2 (human, UniProt P07550 1-413); experiment: as above
T4 construct: whole, on cells; Untagged: adenovirus-expressed in U-2 OS or MDA-MB-231 cells, or endogenous in patient derived cells and PDX tissue; also called Adrenoceptor Beta 2; Ad-ADRB2
Protocol: as §1, §2

[5] = molecular target: T5, APLNR-VC (human, UniProt P35414 1-380); experiment: co-internalization of CXCR4-GFP after GPCRx agonist, U-2 OS cells
T5 construct: whole, on cells; Adenovirus-expressed in U-2 OS cells; not shown: VC155, C-terminal fragment of Venus
T5 sequence (looked up): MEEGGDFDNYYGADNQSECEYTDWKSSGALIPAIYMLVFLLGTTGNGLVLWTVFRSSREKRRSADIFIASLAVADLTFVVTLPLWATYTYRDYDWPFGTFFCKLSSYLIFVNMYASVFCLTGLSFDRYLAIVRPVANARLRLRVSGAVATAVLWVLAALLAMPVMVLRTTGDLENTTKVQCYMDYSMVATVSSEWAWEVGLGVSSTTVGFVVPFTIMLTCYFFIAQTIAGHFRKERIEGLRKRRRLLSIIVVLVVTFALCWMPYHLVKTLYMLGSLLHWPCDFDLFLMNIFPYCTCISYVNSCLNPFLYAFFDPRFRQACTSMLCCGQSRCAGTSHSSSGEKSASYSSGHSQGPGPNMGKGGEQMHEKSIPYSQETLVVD
Protocol: (§3) Images were obtained before and 30 min after agonist stimulation, and analyzed using IN Cell Analyzer 2000.
(§4) U-2 OS cells were seeded at a density of 3000 cells per well in a black 96-well clear-bottom plate in 100 μl of McCoy's 5A medium supplemented with 10% FBS. […] Two days post-transduction, cells were stimulated with GPCRx agonists for 30 min and fixed with 2% formaldehyde.

[6] = molecular target: T6, ADRB2-VC (human, UniProt P07550 1-413); experiment: as above
T6 construct: whole, on cells; Adenovirus-expressed in U-2 OS cells; not shown: VC155, C-terminal fragment of Venus
Protocol: as §3, §4

[7] = molecular target: T7, NTSR1-VC (human, UniProt P30989 1-418); experiment: as above
T7 construct: whole, on cells; Adenovirus-expressed in U-2 OS cells; not shown: VC155, C-terminal fragment of Venus
T7 sequence (P30989 whole entry, the tested form may be a part): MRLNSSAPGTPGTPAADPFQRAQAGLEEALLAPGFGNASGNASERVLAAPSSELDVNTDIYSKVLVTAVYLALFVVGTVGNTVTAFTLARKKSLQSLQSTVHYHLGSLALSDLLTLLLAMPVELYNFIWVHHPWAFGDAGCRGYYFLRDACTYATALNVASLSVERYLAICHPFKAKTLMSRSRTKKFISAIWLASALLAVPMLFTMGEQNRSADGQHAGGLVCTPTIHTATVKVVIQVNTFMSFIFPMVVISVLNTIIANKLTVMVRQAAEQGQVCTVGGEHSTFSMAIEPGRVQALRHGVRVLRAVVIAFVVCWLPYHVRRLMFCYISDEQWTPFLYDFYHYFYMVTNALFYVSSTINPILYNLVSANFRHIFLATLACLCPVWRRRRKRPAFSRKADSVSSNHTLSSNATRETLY
Protocol: as §3, §4

[8] = molecular target: T8, EDNRB-VC (human, UniProt P24530 27-442); experiment: as above
T8 construct: whole, on cells; Adenovirus-expressed in U-2 OS cells; not shown: VC155, C-terminal fragment of Venus
T8 sequence (looked up): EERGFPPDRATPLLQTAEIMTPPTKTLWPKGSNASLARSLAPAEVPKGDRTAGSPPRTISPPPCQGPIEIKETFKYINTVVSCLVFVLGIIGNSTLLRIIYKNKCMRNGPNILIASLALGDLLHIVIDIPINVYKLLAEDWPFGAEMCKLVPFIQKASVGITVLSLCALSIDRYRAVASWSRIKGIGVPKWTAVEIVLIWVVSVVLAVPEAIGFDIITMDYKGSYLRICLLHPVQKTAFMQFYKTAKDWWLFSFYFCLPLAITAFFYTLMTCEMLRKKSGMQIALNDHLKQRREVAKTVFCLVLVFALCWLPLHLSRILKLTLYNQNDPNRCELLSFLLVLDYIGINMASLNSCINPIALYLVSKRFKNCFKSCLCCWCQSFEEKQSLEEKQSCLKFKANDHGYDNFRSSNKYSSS
Protocol: as §3, §4

[9] = molecular target: T9, MLNR-VC (human, UniProt O43193 1-412); experiment: as above
T9 construct: whole, on cells; Adenovirus-expressed in U-2 OS cells; not shown: VC155, C-terminal fragment of Venus
T9 sequence (O43193 whole entry, the tested form may be a part): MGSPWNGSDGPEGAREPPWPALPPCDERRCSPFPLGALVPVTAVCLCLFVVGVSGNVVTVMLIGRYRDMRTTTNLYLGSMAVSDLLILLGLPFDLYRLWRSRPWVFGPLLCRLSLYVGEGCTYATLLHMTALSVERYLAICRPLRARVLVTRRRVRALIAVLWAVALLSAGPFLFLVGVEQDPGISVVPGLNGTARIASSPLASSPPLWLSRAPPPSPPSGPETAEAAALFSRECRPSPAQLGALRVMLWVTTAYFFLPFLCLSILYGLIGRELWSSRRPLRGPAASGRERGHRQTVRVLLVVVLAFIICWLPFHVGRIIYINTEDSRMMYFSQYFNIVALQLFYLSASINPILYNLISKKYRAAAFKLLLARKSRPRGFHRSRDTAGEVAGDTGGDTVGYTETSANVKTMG
Protocol: as §3, §4

[10] = molecular target: T10, CHRM1-VC (human, UniProt P11229 1-460); experiment: as above
T10 construct: whole, on cells; Adenovirus-expressed in U-2 OS cells; not shown: VC155, C-terminal fragment of Venus
T10 sequence (looked up): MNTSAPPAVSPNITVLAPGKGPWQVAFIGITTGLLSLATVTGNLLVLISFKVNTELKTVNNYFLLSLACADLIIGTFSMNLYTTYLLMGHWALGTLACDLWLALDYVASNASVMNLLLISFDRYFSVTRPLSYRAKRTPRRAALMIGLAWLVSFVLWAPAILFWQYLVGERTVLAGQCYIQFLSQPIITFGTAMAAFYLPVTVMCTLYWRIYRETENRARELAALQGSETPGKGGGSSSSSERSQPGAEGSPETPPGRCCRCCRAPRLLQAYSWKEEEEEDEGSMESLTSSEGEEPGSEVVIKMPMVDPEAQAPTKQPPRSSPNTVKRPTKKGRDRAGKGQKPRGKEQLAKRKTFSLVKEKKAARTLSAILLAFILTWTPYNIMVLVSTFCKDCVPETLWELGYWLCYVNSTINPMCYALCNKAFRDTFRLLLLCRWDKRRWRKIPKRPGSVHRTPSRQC
Protocol: as §3, §4

[11] = molecular target: T11, SSTR2-VC (human, UniProt P30874 1-369); experiment: as above
T11 construct: whole, on cells; Adenovirus-expressed in U-2 OS cells; not shown: VC155, C-terminal fragment of Venus
T11 sequence (P30874 whole entry, the tested form may be a part): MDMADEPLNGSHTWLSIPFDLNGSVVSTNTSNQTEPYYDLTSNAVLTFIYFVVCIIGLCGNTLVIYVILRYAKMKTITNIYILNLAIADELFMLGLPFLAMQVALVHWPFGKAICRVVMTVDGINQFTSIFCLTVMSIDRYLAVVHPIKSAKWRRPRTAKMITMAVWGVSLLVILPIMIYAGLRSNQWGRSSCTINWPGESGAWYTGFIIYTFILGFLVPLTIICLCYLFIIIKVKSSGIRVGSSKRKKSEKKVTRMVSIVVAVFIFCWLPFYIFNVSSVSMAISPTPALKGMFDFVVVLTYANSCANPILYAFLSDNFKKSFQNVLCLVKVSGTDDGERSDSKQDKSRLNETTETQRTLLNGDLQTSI
Protocol: as §3, §4

[12] = molecular target: T12, HRH1-VC (human, UniProt P35367 1-487); experiment: as above
T12 construct: whole, on cells; Adenovirus-expressed in U-2 OS cells; not shown: VC155, C-terminal fragment of Venus
T12 sequence (P35367 whole entry, the tested form may be a part): as the sequence (P35367 whole entry) above
Protocol: as §3, §4

[13] = molecular target: T13, TACR3-VC (human, UniProt P29371 1-465); experiment: as above
T13 construct: whole, on cells; Adenovirus-expressed in U-2 OS cells; not shown: VC155, C-terminal fragment of Venus
T13 sequence (looked up): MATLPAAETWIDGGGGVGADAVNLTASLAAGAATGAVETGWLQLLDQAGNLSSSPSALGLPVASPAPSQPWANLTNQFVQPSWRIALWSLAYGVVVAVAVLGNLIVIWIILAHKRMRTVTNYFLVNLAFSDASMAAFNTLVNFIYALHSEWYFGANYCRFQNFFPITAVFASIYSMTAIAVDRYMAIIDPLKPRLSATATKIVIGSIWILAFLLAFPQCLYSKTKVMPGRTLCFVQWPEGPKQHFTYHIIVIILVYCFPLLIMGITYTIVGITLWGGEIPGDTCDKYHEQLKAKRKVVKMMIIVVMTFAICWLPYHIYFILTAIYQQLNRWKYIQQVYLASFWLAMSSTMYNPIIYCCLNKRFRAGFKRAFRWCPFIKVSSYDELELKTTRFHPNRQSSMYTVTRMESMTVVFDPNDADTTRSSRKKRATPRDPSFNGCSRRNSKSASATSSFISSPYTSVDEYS
Protocol: as §3, §4

[14] = molecular target: T2, CHRM1; experiment: proximity ligation assay, GBM patient derived cells (endogenous receptors)
Protocol: (§5) To perform PLA with PDC samples, the patient derived cells were plated and fixed with 4% PFA on sixteen-well tissue culture slides. […] Slides were then washed and incubated (1 h at 37° C.) with secondary anti-rabbit and anti-mouse antibodies conjugated with plus and minus Duolink II PLA probes. Slides were washed again and then incubated with ligation-ligase solution (30 min at 37° C.) followed by incubation with amplification-polymerase solution (2 h at 37° C.).
as §5, with “PDCs” for “To perform PLA with PDC samples, the patient derived cells”, “seeded in 96-chamber slide at 100000 ea /well in 100 ul” for “plated and fixed with 4% PFA on sixteen-well tissue”, “media.” for “slides.”

[15] = molecular target: T4, ADRB2; experiment: as above
Protocol: as §5
as §5, with “PDCs” for “To perform PLA with PDC samples, the patient derived cells”, “seeded in 96-chamber slide at 100000 ea /well in 100 ul” for “plated and fixed with 4% PFA on sixteen-well tissue”, “media.” for “slides.”

B1: ADRA1A-VC (receptor, human, UniProt P35348 1-466, looked up)
chain: MVFLSGNASDSSNCTQPPAPVNISKAILLGVILGGLILFGVLGNILVILSVACHRHLHSVTHYYIVNLAVADLLLTSTVLPFSAIFEVLGYWAFGRVFCNIWAAVDVLCCTASIMGLCIISIDRYIGVSYPLRYPTIVTQRRGLMALLCVWALSLVISIGPLFGWRQPAPEDETICQINEEPGYVLFSALGSFYLPLAIILVMYCRVYVVAKRESRGLKSGLKTDKSDSEQVTLRIHRKNAPAGGSGMASAKTKTHFSVRLLKFSREKKAAKTLGIVVGCFVLCWLPFFLVMPIGSFFPDFKPSETVFKIVFWLGYLNSCINPIIYPCSSQEFKKAFQNVLRIQCLCRKQSSKHALGYTLHPPSQAVEGQHKDMVRIPVGSRETFYRISKTDGVCEWKFFSSMPRGSARITVSKDQSSCTTARVRSKSFLQVCCCVGPSTPSLDKNHQVPTIKVHTISLSENGEEV
notes: whole, on cells; Adenovirus-expressed in U-2 OS cells; not shown: VC155, C-terminal fragment of Venus
BiFC score [1]: 7.85

B2: CXCR4-EGFP (receptor, human, UniProt P61073 1-352, looked up)
chain: MEGISIYTSDNYTEEMGSGDYDSMKEPCFREENANFNKIFLPTIYSIIFLTGIVGNGLVILVMGYQKKLRSMTDKYRLHLSVADLLFVITLPFWAVDAVANWYFGNFLCKAVHVIYTVNLYSSVLILAFISLDRYLAIVHATNSQRPRKLLAEKVVYVGVWIPALLLTIPDFIFANVSEADDRYICDRFYPNDLWVVVFQFQHIMVGLILPGIVILSCYCIIISKLSHSKGHQKRKALKTTVILILAFFACWLPYYIGISIDSFILLEIIKQGCEFENTVHKWISITEALAFFHCCLNPILYAFLGAKFKTSAQHALTSVSRGSSLKILSKGKRGGHSSVSTESESSSFHSS
notes: whole, on cells; also called CXCR4-GFP; CXCR-EGFP; not shown: EGFP/GFP from the pAdHTS-GFPC vector
binding result [2]: binds | binding result [3]: binds | binding result [4]: binds | binding result [5]: binds | binding result [6]: binds | binding result [7]: binds | binding result [8]: binds | binding result [9]: binds | binding result [10]: binds | binding result [11]: binds | binding result [12]: binds | binding result [13]: binds

B3: CXCR4 (receptor, human, UniProt P61073 1-352, looked up)
chain: MEGISIYTSDNYTEEMGSGDYDSMKEPCFREENANFNKIFLPTIYSIIFLTGIVGNGLVILVMGYQKKLRSMTDKYRLHLSVADLLFVITLPFWAVDAVANWYFGNFLCKAVHVIYTVNLYSSVLILAFISLDRYLAIVHATNSQRPRKLLAEKVVYVGVWIPALLLTIPDFIFANVSEADDRYICDRFYPNDLWVVVFQFQHIMVGLILPGIVILSCYCIIISKLSHSKGHQKRKALKTTVILILAFFACWLPYYIGISIDSFILLEIIKQGCEFENTVHKWISITEALAFFHCCLNPILYAFLGAKFKTSAQHALTSVSRGSSLKILSKGKRGGHSSVSTESESSSFHSS
notes: whole, on cells; also called C-X-C Motif Chemokine Receptor 4; CXC receptor 4
binding result [14]: binds | binding result [15]: binds
